Reference: article PMC7327485 (The EMBO Journal, 2020)

Biological target: the molecule itself
Assay: absorbance at 350 nm

B1: farnesylated hGBP1 R584‐586A (hGBP1F ^R584‐586A) (natural protein)
chain: MASEIHMTGPMCLIENTNGRLMANPEALKILSAITQPMVVVAIVGLYRTGKSYLMNKLAGKKKGFSLGSTVQSHTKGIWMWCVPHPKKPGHILVLLDTEGLGDVEKGDNQNDSWIFALAVLLSSTFVYNSIGTINQQAMDQLYYVTELTHRIRSKSSPDENENEVEDSADFVSFFPDFVWTLRDFSLDLEADGQPLTPDEYLTYSLKLKKGTSQKDETFNLPRLCIRKFFPKKKCFVFDRPVHRRKLAQLEKLQDEELDPEFVQQVADFCSYIFSNSKTKTLSGGIQVNGPRLESLVLTYVNAISSGDLPCMENAVLALAQIENSAAVQKAIAHYEQQMGQKVQLPTETLQELLDLHRDSEREAIEVFIRSSFKDVDHLFQKELAAQLEKKRDDFCKQNQEASSDRCSALLQVIFSPLEEEVKAGIYSKPGGYRLFVQKLQDLKKKYYEEPRKGIQAEEILQTYLKSKESMTDAILQTDQTLTEKEKEIEVERVKAESAQASAKMLQEMQRKNEQMMEQKERSYQEHLKQLTEKMENDRVQLLKEQERTLALKLQEQEQLLKEGFQKESRIMKNEIQDLQTKMAAAKACTIS
modifications: C-terminal farnesyl moiety (added in vitro with farnesyltransferase and farnesyl pyrophosphate)
B1: binds.
